{"source": "patent US20260209387A1", "about": "“SINGLE-DOMAIN ANTIBODY FOR INHIBITION OF NEUTROPHIL ELASTASE ACTIVITY” (UNIVERSITE DE LIEGE, priority 2023, published 2026)", "key": {"[1]": {"experiment": "Physical stress (nebulization, agitation, freeze/thaw): concentration by A280 nm before/after centrifugation", "format": "physicochemical", "conditions": "for Initial concentration percentage after centrifugation: 10 000 g 10 min", "description": "A 0.25 mg/ml solution of NbE201, NbE201-PEG10 or NbE201-PEG40 was prepared and divided in order to apply the following conditions: control, 1 or 4 h of agitation with a magnetic bar, nebulization, 5 or 10 freeze/thaw cycles.\n2.3.1 Stability towards agitation. 100 μl of a 0.25 mg/ml ISVDs solution were agitated in a 1 ml glass vial with a 2×5 mm magnetic bar (VWR, Radnor, USA) at 200 rpm during 1 or 4 hours.\n2.3.2 Stability towards Nebulization. 300 μl of a 0.25 mg/ml ISVDs solution were nebulized with a MeSH nebulizer (InnoSpire Go, Phillips, Amsterdam, The Netherlands).\n2.3.3 Stability towards freezing/thawing. 100 μl of a 0.25 mg/ml ISVDs solution underwent 5 or 10 freeze/thaw (F/T) cycles. Freezing was performed in a −20° C. freezer and thawing was performed at RT.\n2.3.4 Concentration measurements. Concentrations and UV spectra were measured by spectrophotometry (NanoDrop 2000/2000c spectrophotometer, ThermoFisher). Concentrations were determined based on the absorbance at 280 nm. NbE201 and NbE201-Cter mass extinction coefficients applied to the measurements were 1.888 and 1.716 (mg/mL)^−1 cm^−1 respectively. Regarding the ISVDs exposed to physical stresses, the concentration was read before and after centrifugation at 10 000 g at 4° C. for 10 min."}, "[2]": {"target": "T1, proteolytic (elastase) activity of cystic fibrosis patient sputa (Homo sapiens, UniProt P08246)", "T1 construct": "Sputa from patients with cystic fibrosis, COPD or ciliary diskenisia above 18 years old were collected; from tissue; host or cells: expectorated sputum of patients with cystic fibrosis, COPD or ciliary dyskinesia", "T1 sequence (P08246 30-267)": "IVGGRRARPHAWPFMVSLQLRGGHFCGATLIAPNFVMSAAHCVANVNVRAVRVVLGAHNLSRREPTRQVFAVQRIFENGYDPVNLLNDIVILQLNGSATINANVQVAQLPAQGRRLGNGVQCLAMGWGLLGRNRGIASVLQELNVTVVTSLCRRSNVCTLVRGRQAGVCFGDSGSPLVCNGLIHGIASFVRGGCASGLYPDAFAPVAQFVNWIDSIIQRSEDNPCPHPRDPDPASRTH", "experiment": "Sputum proteolytic activity inhibition, cystic fibrosis sputa", "format": "biochemical", "description": "(§1) 2.2.2 Evaluation of the proteolytic activity inhibition in CF, COPD and ciliary diskenisia sputa. […] Sputa collection procedures were evaluated by the local ethic committee (comité d'Ethique Hospitalo-Facultaire des Cliniques universitaires Saint-Luc) and approved under the Belgian registration number B4032021000071.\n(§2) Sputum proteolytic activity was assessed by following with a spectrophotometer the absorbance at 410 nm of suc-Ala-Ala-Pro-Val-pNA degradation, the chromogenic hNE substrate. Sputa were classified as mucoid, muco-purulent or purulent (Serisier et al., 2009, Respir Res, 10 (1): 63. doi: 10.1186/1465-9921-10-6). According to the experiment, 10 to 20 mg of sputum were weighted in a 96-well plate. ISVDs were then added to the sputum samples and pre-incubated at 37° C. during different periods of time. The hNE substrate was diluted to a concentration of 1 mM in a tris buffer (0.1M tris, 0.5M NaCl, 0.01% Sodium azide (NaN3), pH 7.5) and 50 μl of this solution were added to the wells. The substrate degradation was followed during 50 min. […] Slopes were then calculated from the regression line drawn from the absorbance measurements and were expressed as a percentage of the sputum proteolytic activity without ISVDs."}, "[3]": {"target": "T2, hNE (Homo sapiens, UniProt P08246)", "T2 construct": "purchased Elastin Products Company (EPC)", "T2 sequence (P08246 30-247)": "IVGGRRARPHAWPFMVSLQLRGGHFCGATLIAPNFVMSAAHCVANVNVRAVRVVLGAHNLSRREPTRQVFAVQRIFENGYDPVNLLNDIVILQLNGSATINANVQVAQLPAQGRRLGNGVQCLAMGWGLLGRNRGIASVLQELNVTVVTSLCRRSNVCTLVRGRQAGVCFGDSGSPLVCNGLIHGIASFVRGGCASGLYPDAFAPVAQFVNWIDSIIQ", "experiment": "Spray-dried powder: hNE inhibition after solubilizing", "format": "biochemical", "conditions": "[hNE]:[ISVD] 1:1", "description": "Dry powders for inhalation were formulated with the NbE201 and the NbE201-PEG40. The spray dryer used was the PROCEPT's modular 4M8-Trix.\nThe inhibitory activity was also assessed after solubilizing the powders. The inhibitory capacity of the Nbs were assessed in an in vitro assay at a [hNE]:[ISVD] ratio of 1:1. The inhibition capacity of the solubilized powders was compared to the inhibition capacity of their respective controls (eg. untreated NbE201 or NbE201-PEG40). […] The protein concentration used to calculate the hNE: ISVD ratio was the concentration read after centrifugation."}, "[4]": {"target": "T2, hNE", "experiment": "hNE inhibitory capacity after physical stress", "format": "biochemical", "conditions": "hNE: Nb molar ratio 1:1, compared to unexposed ISVD", "description": "2.2.1 Evaluation of the proteolytic activity inhibition on purified hNE. hNE activity was assessed by following the degradation of a chromogenic hNE substrate, N-succinyl-alanine-alanine-proline-valine-p-nitroanilide (suc-Ala-Ala-Pro-Val-pNA, Elastin products, Owensville, Missouri, USA), measuring the absorbance at 410 nm with a spectrophotometer (Spectramax ID5, Molecular Devices, San Jose, USA). The substrate was diluted to a concentration of 1.5 mM in a tris buffer (0.1M tris, 0.5M NaCl, 0.01% NaN3, pH 7.5) and 200 μl of this solution were added to the wells of a 96-well plate and heated at 37° C. Purified hNE (Elastin products) was reconstituted on ice in a 0.05M Sodium acetate (NaOAc), 0.1M NaCl buffer at pH5 to a concentration of 0.1 mg/ml. 10 μl of this hNE solution were added per well and the substrate degradation was followed during 20 min to verify the hNE activity in the wells. ISVDswere then added to the wells at the desired hNE: ISVD ratio, and the substrate degradation was then followed during 50 min. Slopes were calculated from the regression line drawn from the absorbance measurements and were expressed as a percentage of the hNE activity without ISVDs. […]"}, "[5]": {"target": "T3, proteolytic activity of ciliary dyskinesia patient sputum (Homo sapiens, UniProt P08246)", "T3 construct": "Sputa from patients with cystic fibrosis, COPD or ciliary diskenisia above 18 years old were collected; from tissue; host or cells: expectorated sputum of patients with cystic fibrosis, COPD or ciliary dyskinesia", "T3 sequence (P08246 30-267)": "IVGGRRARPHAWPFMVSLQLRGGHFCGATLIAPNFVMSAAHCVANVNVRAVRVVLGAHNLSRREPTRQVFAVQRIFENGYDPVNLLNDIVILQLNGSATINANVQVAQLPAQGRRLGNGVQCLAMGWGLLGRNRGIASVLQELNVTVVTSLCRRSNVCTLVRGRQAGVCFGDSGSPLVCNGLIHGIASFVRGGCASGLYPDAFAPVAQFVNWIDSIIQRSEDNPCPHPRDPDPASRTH", "experiment": "Sputum proteolytic activity inhibition, ciliary dyskinesia sputum", "format": "biochemical", "conditions": "10 mg sputum", "description": "as §1, §2"}, "[6]": {"conditions": "hNE + Solubilized powder, with aggregates"}, "[7]": {"conditions": "hNE + Solubilized powder, without aggregates (after centrifugation)"}}, "data": [{"molecule": "NbE201: anti-hNE ISVD (VHH/nanobody) from immunized lama, amino acid sequence SEQ ID NO: 4 (protein) VHH: QVQLQESGGGLVQAGGSLRLSCVVPGRTISLYRMGWFRQAPGKEREFVAGINWSGDMTDYVDSVKGRFTISRDNAKNTVYLEMNSLKPEDTAIYYCTADPKLLPLADSSYGYWGQGTQVTVSS", "values": [{"measurement": "Initial concentration percentage before centrifugation", "setting": "[1]; Agitation (1 h)", "value": "93 ± 4", "unit": "%"}, {"measurement": "Initial concentration percentage after centrifugation", "setting": "[1]; Agitation (1 h)", "value": "54 ± 12% (****)"}, {"measurement": "Initial concentration percentage before centrifugation", "setting": "[1]; Agitation (4 h)", "value": "77 ± 6% (**)"}, {"measurement": "Initial concentration percentage after centrifugation", "setting": "[1]; Agitation (4 h)", "value": "27 ± 19% (****)"}, {"measurement": "Initial concentration percentage before centrifugation", "setting": "[1]; Control", "value": "100 ± 0", "unit": "%"}, {"measurement": "Initial concentration percentage after centrifugation", "setting": "[1]; Control", "value": "100 ± 0", "unit": "% ^"}, {"measurement": "Initial concentration percentage before centrifugation", "setting": "[1]; F/T 5x", "value": "96 ± 8", "unit": "%"}, {"measurement": "Initial concentration percentage after centrifugation", "setting": "[1]; F/T 5x", "value": "85 ± 10% (*)"}, {"measurement": "Initial concentration percentage before centrifugation", "setting": "[1]; F/T 10x", "value": "103 ± 5", "unit": "%"}, {"measurement": "Initial concentration percentage after centrifugation", "setting": "[1]; F/T 10x", "value": "75 ± 9% (**)"}, {"measurement": "Initial concentration percentage before centrifugation", "setting": "[1]; Nebulization", "value": "73% ± 3% (***)"}, {"measurement": "Initial concentration percentage after centrifugation", "setting": "[1]; Nebulization", "value": "31 ± 2% (****)"}, {"measurement": "inhibition of proteolytic activity in sputum samples ex vivo", "setting": "[2]; cystic fibrosis sputa", "value": "able to inhibit the proteolytic activity in sputum samples ex vivo"}, {"measurement": "sputum inhibition capacity over time", "setting": "[2]; exposure 0 to 24 h", "value": "a loss of inhibitory capacity over time was observed"}, {"measurement": "hNE Inhibition percentage", "setting": "[3]; hNE + Control sdAb (untreated)", "value": "76 ± 1", "unit": "%"}, {"measurement": "hNE Inhibition percentage", "setting": "[3]; [6]", "value": "48 ± 5", "unit": "%"}, {"measurement": "hNE Inhibition percentage", "setting": "[3]; [7]", "value": "78 ± 2", "unit": "%"}, {"measurement": "loss of hNE inhibitory capacity after nebulization, agitation or F/T cycles", "setting": "[4]", "value": "the greatest losses were observed with nebulization and 4 h of agitation"}, {"measurement": "inhibitory capacity in ciliary dyskinesia sputum", "setting": "[5]", "value": "No apparent differences in inhibitory capacity"}]}, {"molecule": "NbE201-PEG40: NbE201-Cter conjugated via C-terminal cysteine to branched 40 kDa PEG-maleimide (conjugate) VHH: QVQLQESGGGLVQAGGSLRLSCVVPGRTISLYRMGWFRQAPGKEREFVAGINWSGDMTDYVDSVKGRFTISRDNAKNTVYLEMNSLKPEDTAIYYCTADPKLLPLADSSYGYWGQGTQVTVSSSPSTPPTPSPSTPPC", "values": [{"measurement": "Initial concentration percentage before centrifugation", "setting": "[1]; Agitation (1 h)", "value": "99 ± 1", "unit": "%"}, {"measurement": "Initial concentration percentage after centrifugation", "setting": "[1]; Agitation (1 h)", "value": "98 ± 1", "unit": "%"}, {"measurement": "Initial concentration percentage before centrifugation", "setting": "[1]; Agitation (4 h)", "value": "98 ± 1", "unit": "%"}, {"measurement": "Initial concentration percentage after centrifugation", "setting": "[1]; Agitation (4 h)", "value": "99 ± 1", "unit": "%"}, {"measurement": "Initial concentration percentage before centrifugation", "setting": "[1]; Control", "value": "100 ± 0", "unit": "%"}, {"measurement": "Initial concentration percentage after centrifugation", "setting": "[1]; Control", "value": "99 ± 1", "unit": "%"}, {"measurement": "Initial concentration percentage before centrifugation", "setting": "[1]; F/T 5x", "value": "97 ± 2", "unit": "%"}, {"measurement": "Initial concentration percentage after centrifugation", "setting": "[1]; F/T 5x", "value": "99 ± 1", "unit": "%"}, {"measurement": "Initial concentration percentage before centrifugation", "setting": "[1]; F/T 10x", "value": "97 ± 2", "unit": "%"}, {"measurement": "Initial concentration percentage after centrifugation", "setting": "[1]; F/T 10x", "value": "97 ± 3", "unit": "%"}, {"measurement": "Initial concentration percentage before centrifugation", "setting": "[1]; Nebulization", "value": "88 ± 3% (****)"}, {"measurement": "Initial concentration percentage after centrifugation", "setting": "[1]; Nebulization", "value": "88 ± 3% (****)"}, {"measurement": "sputum proteolytic activity inhibition at time 0, compared with NbE201", "setting": "[2]; exposure time 0", "value": "No significant difference"}, {"measurement": "hNE Inhibition percentage", "setting": "[3]; hNE + Control sdAb (untreated)", "value": "70 ± 2", "unit": "%"}, {"measurement": "hNE Inhibition percentage", "setting": "[3]; [6]", "value": "67 ± 2", "unit": "%"}, {"measurement": "hNE Inhibition percentage", "setting": "[3]; [7]", "value": "72 ± 1", "unit": "%"}, {"measurement": "loss of hNE inhibitory capacity after nebulization, agitation or F/T cycles", "setting": "[4]", "value": "did not display any significant loss of inhibitory activity"}, {"measurement": "inhibitory capacity in ciliary dyskinesia sputum", "setting": "[5]", "value": "No apparent differences in inhibitory capacity"}]}]}
